Holding throughout (experiment): SPR
(Surface plasmon resonance follows binding to a sensor surface in real time, without labels.)

In one test the target is T1, human FcγRIIa H131 (human, UniProt P12318).
T1 chain: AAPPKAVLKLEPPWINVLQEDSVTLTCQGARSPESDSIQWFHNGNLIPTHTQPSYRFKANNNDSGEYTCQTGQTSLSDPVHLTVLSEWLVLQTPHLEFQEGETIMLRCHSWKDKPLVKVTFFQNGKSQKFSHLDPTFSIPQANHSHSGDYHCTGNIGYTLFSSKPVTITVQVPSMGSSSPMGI

The next test deals with human FcγRIIIa V158 (human, UniProt P08637).
In another test the target is T2, human FcγRIa (human, UniProt P12314).
T2 chain: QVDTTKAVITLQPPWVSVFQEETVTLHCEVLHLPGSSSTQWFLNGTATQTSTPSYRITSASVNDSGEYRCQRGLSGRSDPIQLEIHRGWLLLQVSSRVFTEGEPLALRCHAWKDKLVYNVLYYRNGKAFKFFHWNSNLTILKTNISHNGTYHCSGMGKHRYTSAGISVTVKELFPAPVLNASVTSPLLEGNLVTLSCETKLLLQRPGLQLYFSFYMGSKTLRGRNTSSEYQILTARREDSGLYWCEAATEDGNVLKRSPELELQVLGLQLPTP

In a further test the target is T3, human FcγRIIa R131 (human, UniProt P12318).
T3 chain: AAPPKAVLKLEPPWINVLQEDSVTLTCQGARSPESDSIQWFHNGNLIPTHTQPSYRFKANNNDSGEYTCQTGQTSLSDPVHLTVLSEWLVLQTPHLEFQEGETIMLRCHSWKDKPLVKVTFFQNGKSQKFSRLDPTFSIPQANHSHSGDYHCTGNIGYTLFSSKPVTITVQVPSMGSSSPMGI

Another test addresses T4, human FcγRIIb (human, UniProt P31994).
T4 chain: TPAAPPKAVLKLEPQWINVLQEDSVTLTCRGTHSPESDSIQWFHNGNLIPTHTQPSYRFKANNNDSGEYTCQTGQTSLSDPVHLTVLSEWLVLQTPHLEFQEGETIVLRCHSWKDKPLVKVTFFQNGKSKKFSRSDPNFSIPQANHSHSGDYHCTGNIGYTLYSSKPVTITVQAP

Chain of human FcγRIIIa V158 (P08637 17-208 F176V): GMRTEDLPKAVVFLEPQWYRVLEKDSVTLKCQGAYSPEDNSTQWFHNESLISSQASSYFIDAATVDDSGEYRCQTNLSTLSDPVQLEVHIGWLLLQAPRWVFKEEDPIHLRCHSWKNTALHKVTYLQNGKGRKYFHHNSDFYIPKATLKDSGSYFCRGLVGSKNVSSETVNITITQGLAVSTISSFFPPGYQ

B1: IL6R-BP264 (antibody)
chain 1: QVQLQESGPGLVKPSETLSLTCAVSGHSISHDHAWSWVRQPPGEGLEWIGFISYSGITNYNPSLQGRVTISRDNSKNTLYLQMNSLRAEDTAVYYCARSLARTTAMDYWGEGTLVTVSSASTKGPSVFPLAPSSKSTSGGTAALGCLVKDYFPEPVTVSWNSGALTSGVHTFPAVLQSSGLYSLSSVVTVPSSSLGTQTYICNVNHKPSNTKVDKKVEPKSCDKTHTCPPCPAPDLLGDDSVFLFPPKPKDTLMISRTPEVTCVVVDVSEEDGEVKFNWYVDGVEVHNAKTKPREEQDNSTYRVVSVLTVLHQDWLNGKEYKCKVSNKALPRPIEKTISKAKGQPREPQVYTLPPSRDELTKNQVSLTCLVKGFYPSDIAVEWESNGQPENNYKTTPPVLDSDGSFFLYSKLTVDKSRWQQGNVFSCSVMHEALHNHYTQESLSLSP
chain 2: not shown
For the molecule B1, the Kd (in general, the constant that tells how readily two partners part at equilibrium) with human FcγRIIa H131 was 2800 nM; in the test with human FcγRIIIa V158 it was 26000 nM; with human FcγRIa, 7.4 nM; in the test with human FcγRIIa R131, 350 nM.

B2: IL6R-BP428 (antibody)
chain 1: QVQLQESGPGLVKPSETLSLTCAVSGHSISHDHAWSWVRQPPGEGLEWIGFISYSGITNYNPSLQGRVTISRDNSKNTLYLQMNSLRAEDTAVYYCARSLARTTAMDYWGEGTLVTVSSASTKGPSVFPLAPSSKSTSGGTAALGCLVKDYFPEPVTVSWNSGALTSGVHTFPAVLQSSGLYSLSSVVTVPSSSLGTQTYICNVNHKPSNTKVDKKVEPKSCDKTHTCPPCPAPDLLGDDSVFLFPPKPKDTLMISRTPEVTCVVVDVGEEDGEVKFNWYVDGVEVHNAKTKPREEQYNSTYRVVSVLTVLHQDWLNGKEYKCKVSNKALPRPIEKTISKAKGQPREPQVYTLPPSRDELTKNQVSLTCLVKGFYPSDIAVEWESNGQPENNYKTTPPVLDSDGSFFLYSKLTVDKSRWQQGNVFSCSVMHEALHNHYTQESLSLSP
chain 2: not shown
In the case of B2, the Kd in the test with human FcγRIIa H131 was 32000 nM; with human FcγRIIa R131, 390 nM.

B3: IL6R-BP268 (antibody)
chain 1: QVQLQESGPGLVKPSETLSLTCAVSGHSISHDHAWSWVRQPPGEGLEWIGFISYSGITNYNPSLQGRVTISRDNSKNTLYLQMNSLRAEDTAVYYCARSLARTTAMDYWGEGTLVTVSSASTKGPSVFPLAPSSKSTSGGTAALGCLVKDYFPEPVTVSWNSGALTSGVHTFPAVLQSSGLYSLSSVVTVPSSSLGTQTYICNVNHKPSNTKVDKKVEPKSCDKTHTCPPCPAPDLLGDDSVFLFPPKPKDTLMISRTPEVTCVVVDVSEEDGEVKFNWYVDGVEVHNAKTKPREEQDNSTYRVVSVLTVLHQDWLNGKEYKCKVSNKALPAPIEKTISKAKGQPREPQVYTLPPSRDELTKNQVSLTCLVKGFYPSDIAVEWESNGQPENNYKTTPPVLDSDGSFFLYSKLTVDKSRWQQGNVFSCSVMHEALHNHYTQESLSLSP
chain 2: not shown
On to B3, for which the Kd in the test with human FcγRIIa H131 was determined as 21000 nM; with human FcγRIIb it was 92 nM; in the test with human FcγRIIIa V158 it was 28000 nM; with human FcγRIa it was 4.5 nM.

B4: IL6R-BP438 (antibody)
chain 1: QVQLQESGPGLVKPSETLSLTCAVSGHSISHDHAWSWVRQPPGEGLEWIGFISYSGITNYNPSLQGRVTISRDNSKNTLYLQMNSLRAEDTAVYYCARSLARTTAMDYWGEGTLVTVSSASTKGPSVFPLAPSSKSTSGGTAALGCLVKDYFPEPVTVSWNSGALTSGVHTFPAVLQSSGLYSLSSVVTVPSSSLGTQTYICNVNHKPSNTKVDKKVEPKSCDKTHTCPPCPAPDLLGDDSVFLFPPKPKDTLMISRTPEVTCVVVDVAEEDGEVKFNWYVDGVEVHNAKTKPREEQYNSTYRVVSVLTVLHQDWLNGKEYKCKVSNKALPRPTEKTISKAKGQPREPQVYTLPPSRDELTKNQVSLTCLVKGFYPSDIAVEWESNGQPENNYKTTPPVLDSDGSFFLYSKLTVDKSRWQQGNVFSCSVMHEALHNHYTQESLSLSP
chain 2: not shown
As for B4, the Kd with human FcγRIIa H131 is 1600 nM; in the test with human FcγRIIa R131 it was 180 nM.

Source of the values: patent publication US11827699 (dated 2023).
